Data on five molecules can be found in patent publication US11653679B2, “High-purity steviol glycosides” (PureCircle Sdn Bhd, priority 2014, dated 2023).

Data set [1] is described as follows: Catalytic test Rebaudioside A to Rebaudioside D with in-vitro expressed UDP-glucosyltransferases (Examples 20, 21), HPLC. It is filed as biochemical. To be noted: for Conversion RebA to RebD: in-vitro expressed enzyme; for Steviol glycoside conversion in reaction mixture, Reb A / Steviol glycoside conversion in reaction mixture, Reb D / Steviol glycoside conversion in reaction mixture, Reb UNK (later identified as reb D2): 0.5 mM Rebaudioside A, 30° C., HPLC. As for the experimental part:
The prepared expression medium mix was added to the plasmid solution and the solution was allowed to incubate at 30° C. for 3 hours while mixing the mixture every 45 minutes. 5 μL of the mixture was frozen whereas the remainder was used for the catalytic test for the conversion of Rebaudioside A to Rebaudioside D.
430 μL of a reaction mixture containing 0.5 mM Rebaudioside A, 3 mM MgCl2, 50 mM phosphate buffer (pH7.2) and 2.5 mM UDP-glucose was added to a 1.5 mL sterile microtube. 52 μl of the enzyme expression medium was added and the resulting mixture was allowed to react at 30° C. for 24 hours. 125 μL samples were taken after 2 hours, 16 hours and 24 hours and added to a 115 μL of 60% methanol and 10 μL of 2 N H2SO4. The quenched sample was centrifuged at 18,000 g for 2 minutes at RT. 200 μL was transferred to an HPLC vial and analyzed.
The HPLC assay was performed as follows:
430 μL of a reaction mixture containing 0.5 mM Rebaudioside A, 3 mM MgCl2, 50 mM phosphate buffer (pH7.2) and 2.5 mM UDP-glucose was added to a 1.5 mL sterile microtube. 52 μL of the enzyme expression medium was added and the resulting mixture was allowed to react at 30° C. for 24 hours. 125 μL samples were taken after 2 hours, 16 hours and 24 hours and added to a 115 μL of 60% methanol and 10 μL of 2 N H2SO4. The quenched sample was centrifuged at 18,000 g for 2 minutes at RT. 200 μL was transferred to HPLC vial and analyzed.
(§1) The HPLC assay was performed as described in EXAMPLE 20.

The nature of data set [2]: Activity of in-vivo produced enzymes for transformation of Rebaudioside A (Example 22). In kind it is biochemical. To be noted: for Conversion after 45 hrs.: 0.5 mM, in-vivo produced enzyme lysate; for Reb D selectivity: after 45 hrs. The method, then: Activity tests were performed at 5 mL scale with 1,000 μL of thawed lysate for the transformation of Rebaudioside A using 0.5 mM of substrate, 2.5 mM of UDP-Glucose and 3 mM MgCl2 in 50 mM Sodium Phosphate buffer at pH 7.2. Samples were taken and analyzed by HPLC.
as §1

B1: EUGT11: putative UDP-glucoronosyl and UDP-glucosyl transferase [Oryza sativa Japonica Group], from WO/2013/022989A2, SEQ ID NO:8 (protein, listed as Oryza sativa)
chain: MHVVICPLLAFGHLLPCLDLAQRLACGHRVSFVSTPRNISRLPPVRPSLAPLVSFVALPLPRVEGLPNGAESTHNVPHDRPDMVELHLRAFDGLAAPFSEFLGTACADWVMPTSSAPRQTLSSNIHRNSSRPGTPAPSGRLLCPITPHSNTLERAAEKLVRSSRQNARARSLLAFTSPPLPYRDVFRSLLGLQMGRKQLNIAHETNGRRTGTLPLNLCRWMWKQRRCGKLRPSDVEFNTSRSNEAISPIGASLVNLQSIQSPNPRAVLPIASSGVRAVFIGRARTSTPTPPHAKPARSAAPRAHRPPSSVMDSGYSSSYAAAAGMHVVICPWLAFGHLLPCLDLAQRLASRGHRVSFVSTPRNISRLPPVRPALAPLVAFVALPLPRVEGLPDGAESTNDVPHDRPDMVELHRRAFDGLAAPFSEFLGTACADWVIVDVFHHWAAAAALEHKVPCAMMLLGSAHMIASIADRRLERAETESPAAAGQGRPAAAPTFEVARMKLIRTKGSSGMSLAERFSLTLSRSSLVVGRSCVEFEPETVPLLSTLRGKPITFLGLMPPLHEGRREDGEDATVRWLDAQPAKSVVYVALGSEVPLGVEKVHELALGLELAGTRFLWALRKPTGVSDADLLPAGFEERTRGRGVVATRWVPQMSILAHAAVGAFLTHCGWNSTIEGLMFGHPLIMLPIFGDQGPNARLIEAKNAGLQVARNDGDGSFDREGVAAAIRAVAVEEESSKVFQAKAKKLQEIVADMACHERYIDGFIQQLRSYKD
For B1, the “Conversion RebA to RebD” value in data set [1] is “Active”.

B2: gi222619587_EEE55719.1: hypothetical protein OsJ_04191 [Oryza sativa Japonica Group], SEQ ID NO:6 (protein, listed as Oryza sativa)
chain: MHVVMLPWLAFGHILPFAEFAKRVARQGHRVTLFSTPRNTRRLIDVPPSLAGRIRVVDIPLPRVEHLPEHAEATIDLPSNDLRPYLRRAYDEAFSRELSRLLQETGPSRPDWVLADYAAYWAPAAASRHGVPCAFLSLFGAAALCFFGPAETLQGRGPYAKTEPAHLTAVPEYVPFPTTVAFRGNEARELFKPSLIPDESGVSESYRFSQSIEGCQLVAVRSNQEFEPEWLELLGELYQKPVIPIGMFPPPPPQDVAGHEETLRWLDRQEPNSVVYAAFGSEVKLTAEQLQRIALGLEASELPFIWAFRAPPDAGDGDGLPGGFKERVNGRGVVCRGWVPQVKFLAHASVGGFLTHAGWNSIAEGLANGVRLVLLPLMFEQGLNARQLAEKKVAVEVARDEDDGSFAANDIVDALRRVMVGEEGDEFGVKVKELAKVFGDDEVNDRYVRDFLKCLSEYKMQRQG
Consider B2, for which, in data set [1], the “Steviol glycoside conversion in reaction mixture, Reb A” value (from here on “Steviol glycoside conversion … Reb A”) came to 92.8 % area; the “Steviol glycoside conversion in reaction mixture, Reb D” value came out at 0.14 % area; the “Steviol glycoside conversion in reaction mixture, Reb UNK (later identified as reb D2)” value was 7.0 % area; the “Conversion RebA to RebD” value is on record as “Active”. Moreover, in data set [2], the “Conversion after 45 hrs.” value was determined as 2.9% and the “Reb D selectivity” value is listed as “Reb D Not detected”.

B3: gi187373030_ACD03249.1: UDP-glycosyltransferase [Avena strigosa], SEQ ID NO:4 (protein, listed as Avena strigosa)
chain: MAVKDEQQSPLHILLFPFLAPGHLIPIADMAALFASRGVRCTILTTPVNAAIIRSAVDRANDAFRGSDCPAIDISVVPFPDVGLPPGVENGNALTSPADRLKFFQAVAELREPFDRFLADNHPDAVVSDSFFHWSTDAAAEHGVPRLGFLGSSMFAGSCNESTLHNNPLETAADDPDALVSLPGLPHRVELRRSQMMDPKKRPDHWALLESVNAADQKSFGEVFNSFHELEPDYVEHYQTTLGRRTWLVGPVALASKDMAGRGSTSARSPDADSCLRWLDTKQPGSVVYVSFGTLIRFSPAELHELARGLDLSGKNFVWVLGRAGPDSSEWMPQGFADLITPRGDRGFIIRGWAPQMLILNHRALGGFVTHCGWNSTLESVSAGVPMVTWPRFADQFQNEKLIVEVLKVGVSIGAKDYGSGIENHDVIRGEVIAESIGKLMGSSEESDAIQRKAKDLGAEARSAVENGGSSYNDVGRLMDELMARRSSVKVGEDIIPTNDGL
B3: in data set [1], the “Steviol glycoside conversion … Reb A” value came to 99.4 % area; the “Steviol glycoside conversion in reaction mixture, Reb D” value came out at 0.6 % area; the “Conversion RebA to RebD” value is recorded as “Active”. In addition, in data set [2], the “Conversion after 45 hrs.” value was determined as 0.8% and the “Reb D selectivity” value amounted to 100%.

B4: gi115454819_NP_001051010.1: Os03g0702500 [Oryza sativa Japonica Group], SEQ ID NO:3 (protein, listed as Oryza sativa)
chain: MDDAHSSQSPLHVVIFPWLAFGHLLPCLDLAERLAARGHRVSFVSTPRNLARLPPVRPELAELVDLVALPLPRVDGLPDGAEATSDVPFDKFELHRKAFDGLAAPFSAFLDTACAGGKRPDWVLADLMHHWVALASQERGVPCAMILPCSAAVVASSAPPTESSADQREAIVRSMGTAAPSFEAKRATEEFATEGASGVSIMTRYSLTLQRSKLVAMRSCPELEPGAFTILTRFYGKPVVPFGLLPPRPDGARGVSKNGKHDAIMQWLDAQPAKSVVYVALGSEAPMSADLLRELAHGLDLAGTRFLWAMRKPAGVDADSVLPAGFLGRTGERGLVTTRWAPQVSILAHAAVCAFLTHCGWGSVVEGLQFGHPLIMLPILGDQGPNARILEGRKLGVAVPRNDEDGSFDRGGVAGAVRAVVVEEEGKTFFANARKLQEIVADREREERCIDEFVQHLTSWNELKNNSDGQYP
As to B4, in data set [1], the “Steviol glycoside conversion … Reb A” value is 96.7 % area; the “Steviol glycoside conversion in reaction mixture, Reb D” value is listed as 2.1 % area; the “Conversion RebA to RebD” value is “Active”. Moreover, in data set [2], the “Conversion after 45 hrs.” value was 1.1% and the “Reb D selectivity” value worked out at 100%.

B5: gi297795735_XP_002865752.1: UDP-glucoronosyl/UDP-glucosyl transferase family protein [Arabidopsis lyrata subsp. lyrata], SEQ ID NO:7 (protein, listed as Arabidopsis lyrata)
chain: MDDKKEEVMHIAMFPWLAMGHLLPFLRLSKLLAQKGHKISFISTPRNILRLPKLPSNLSSSITFVSFPLPSISGLPPSSESSMDVPYNKQQSLKAAFDLLQPPLTEFLRLSSPDWIIYDYASHWLPSIAKELGISKAFFSLFNAATLCFMGPSSSLIEESRSTPEDFTVVPPWVPFKSTIVFRYHEVSRYVEKTDEDVTGVSDSVRFGYTIDGSDAVFVRSCPEFEPEWFSLLQDLYRKPVFPIGFLPPVIEDDDDDTTWVRIKEWLDKQRVNSVVYVSLGTEASLRREELTELALGLEKSETPFFWVLRNEPQIPDGFEERVKGRGMVHVGWVPQVKILSHESVGGFLTHCGWNSVVEGIGFGKVPIFLPVLNEQGLNTRLLQGKGLGVEVLRDERDGSFGSDSVADSVRLVMIDDAGEEIREKVKLMKGLFGNMDENIRYVDELVGFMRNDESSQLKEEEEEDDCSDDQSSEVSSETDEKELNLDLKEEKRRISVYKSLSSEFDDYVANEKMG
In the case of B5, in data set [1], the “Steviol glycoside conversion … Reb A” value is given as 95.8 % area; the “Steviol glycoside conversion in reaction mixture, Reb D” value is given as 0.28 % area; the “Steviol glycoside conversion in reaction mixture, Reb UNK (later identified as reb D2)” value came to 3.9 % area; the “Conversion RebA to RebD” value was “Active”. Further, in data set [2], the “Conversion after 45 hrs.” value worked out at 0.0% and the “Reb D selectivity” value is recorded as “Reb D Not detected”.
